Assay: soluble on expression in E. coli; label from the status in PepcDB or PDB records
With “GSHMLEDPQRRIRRPFSVAEVEALVQAVEKLGTGRWRDVKLCAFEDADHRTYVDLKDKWKTLVHTAKISPQQRRGEPVPQELLNRVLNAHGYWTQQQMQQLQQNV” the “soluble on expression in E. coli” value was “soluble”. With “MCLNFREDNVMKKIMVIFGTRPEAIKMAPLVKEIDHNGNFEANIVITAQHRDMLDSVLSIFDIQADHDLNIMQDQQTLAGLTANALAKLDSIINEEQPDMILVHGDTTTTFVGSLAAFYHQIPVGHVEAGLRTHQKYSPFPEELNRVMVSNIAELNFAPTVIAAKNLLFENKDKERIFITGNTVIDALSTTVQNDFVSTIINKHKGKKVVLLTAHRRENIGEPMHQIFKAVRDLADEYKDVVFIYPMHRNPKVRAIAEKYLSGRNRIELIEPLDAIEFHNFTNQSYLVLTDSGGIQEEAPTFGKPVLVLRNHTERPEGVEAGTSRVIGTDYDNIVRNVKQLIEDDEAYQRMSQANNPYGDGQASRRICEAIEYYFGLRTDKPDEFVPLRHK” the “soluble on expression in E. coli” value was “not soluble”. With “MSLDSISLHKIFYKVLKNNTLPECQVIAAEGLCKLYLADIFNDDDLFETLILSYFSPSNSSNEGLIQAFAFCIPVYSYSHVLHQQRITKIASDVLLRLYMLWVDFQANEETDENIETMLKPNVILQQLISWTDPRKLIGENEKAINDNYQLNFLLDIFQQFPKFDKKNIKKMILTNINAFYVSSDNDMHKLREIKEHLEDIIENEIIDTMTLNSLEKFKNTIIDCLEEAKEKSENQTKDEIESSDGEYSMILESSNIGNISDVEKDVNVEAAQFSDSENDFEDSDDDTSRKRNRSKLEESIANNTSEKLSVNEDYDSEDTNEPKNDAKDINEPEDGTKDVIMEDSVSSNVIENSKNVSFILPDNDYSSSESSMSVDDESYKEEGHHHHHH” the “soluble on expression in E. coli” value was “soluble”. For “ALGVPFFSCQRGYKGVWRGDGIMQTTCPCGAQITGHVKNGSMRIVGPRTCSNTWHGTFPINAYTTGPCTPSPAPNYSRALWRVAAEEYVEVTRVGDFHYVTGMTTDNVKCPCQVPAPEFFTEVDGVRLHRYAPACKPLLREEVTFLVGLNQYLVGSQLPCEPEPDVAVLTSMDDDDK”, the “soluble on expression in E. coli” value was “soluble”. For “MSLQLDEYLRQLAPSMTQWRRDFHLHAESGWLEFRTASKVADILDGLGYQLALGRDVIDADSRMGLPDEETLARAFERAREQGAPERWLPAFEGGFAGVVATLDTGRPGPTLAFRVDMDALDLNEQHDDSHRPHRDHFASCNAGMMHACGHDGHTAIGLGLAHVLKQYAAQLNGVIKLIFQPAEEGTRGARAMVAAGVVDDVDYFTAIHIGTGVPAGTVVCGGDNFMATTKFDVQFSGVAAHAGGKPEDGRNALLAAAQAALGLHAIPPHSAGASRVNVGVMQAGTGRNVVPSSALLKVETRGESEAINQYVFERAQHVVAGAAAMYEARYELRMMGAATASAPSPAWVDYLREQAARVPGVQQAVDRIAAPAGSEDATLMMARVQARGGLASYMIFGTELSAGHHNEKFDFDESVMAVAVETLARVALNFPWQRGVEGHHHHHH”, the “soluble on expression in E. coli” value was “soluble”. With “GPGSMHTKVLAPLAGNRIQAAHKFPQVRLQPTLHRLMTRRRQCNLPLRLFHPSSVDFAKHELEAGRIVEVRRDDNSLVALGFYEPHLERVDVFDMTANLAAMLPAISEDFFMARVHEAWERRRRILPQTQSNTYRVVNGYADSLPSLFVDVFSESFVRVVATSFGAERLVTPLLDFLSRRGAEDVLLDTPTLGDAARVSIVTPTISLPQMYVESGVSHLWLRPDMRMPSTDNLFLINPAHRRTRRMMRDVGKGKRVLTIYDRSGSAAMNAVMTAKHVTVVHREETSLEWARTNLICNHSASVFKTCETVCCDPAELRVRHQQDVVYVECHPKFLSTSNQWAELVRSLANNKVIGVGTMLIVAQEEAPLGVHDLLPRRKVFYEGDESKANQDCPMKRRPLADVLRNALEKCHLRLKFLRAFSVACDHPLLPEAESASFSLVYLVEGPALEQVFRVSASSHRTECTDEAA” the “soluble on expression in E. coli” value was “not soluble”. With “MAEQQQEQQIRVRIPRKEENEILGIIEQMLGASRVRVRCLDGKTRLGRIPGRLKNRIWVREGDVVIVKPWEVQGDQKCDIIWRYTKTQVEWLKRKGYLDELL” the “soluble on expression in E. coli” value was “soluble”. For “MATFGFLSAPLKSTNEVDLVKPLTSYIDNVYNTSDNNRSDVAEAVQELNKLRSKACCQPLDKHQSALDVLTRYYDQLVAIENKIIISATQNPVVFKWKDAFDKGSLFSSRASLSLSDGSFERAAVLFNIGSLMSQIGAAQQFHTDDEIKVSAKLFQQSAGVFARLRDVVLGMVQQEPTPDLMPDTLAALSALMTAQAQEAIYIKGHKDKMKATSMVKISAQVAEFYSEAQKMMSKDIVRGLWDKDWSAIVSGKNLAYQALAQYHQSEVCGEARQIGEQLSRLAESLKLFDTAQKYLPRDITGIWDIYPSVSKAHAAAKKDNDFIYHEKVSDFRTLPTLPKAVLAKPTPMQTPMTPSFRDMFAVLVPVQVHNAMQSYDARKAELVNMETVRMREATQLMNGVLASLNLPAALDDVTSTETLPESLKLKSAKLKQNGGSSEIMRLFSELPTLYQRNEDILTETSRILNEEKESDDTMRKQLGTKWTRMSSEQLTGPLVTEIGKYRGILHTASNADKMVKEKFESHRQGIELLSKNESELRSSIPGQTAHATGETDTVRQLRQFMSQWNEVTTDRELLEKELKNTNCDIANDFLKAMAENQLINEEHISKEKIAQIFGDLKRRVQSSLDTQETLMNQIQAANNTFTGEKTGSSTGAERERILKMLAQASDAYVELKANLEEGTKFYNDLTPILVRLQQKVSDFAFARQTEKEDLMRQLQLSIVSGTNAAQSPANAPPRPPPPRPAAPSVESPIPPPRTQQSMQATPGAPPQYNPYQQQQQPQMQQFQQHPGYYQQPMPYGQPQPMFQPQYQPTFAAPYPTFPGAFPSYQQQWPQQQQQGGFPPNPQFGQQNQQQGGGGGANPFQ”, the “soluble on expression in E. coli” value was “not soluble”. In the case of “RSSLRKKEFGSKERLLEELRCKKTVLHEVDVTLDPDTAHPHLFLYEDSKSVRLEDSRQILPDRPERFDSWPCVLGRETFTSGRHYWEVEVGDRTDWAIGVCRENVVKKGFDPMTPDNGFWAVELYGNGYWALTPLRTSLRLAGPPRRVGVFLDYDAGDISFYNMSNGSLIYTFPSISFSGPLRPFFCLWSCGKKPLTICSTANGPEKVTVIANVQDD”, the “soluble on expression in E. coli” value is reported as “not soluble”. For “MRIAIEKIIGLLKNQSSKESNVKIHRLAYITNSKFDGNNYIDRWCKIRNSHIGEYSYIGFGSDFNNVEVGRYCSISSDVKIGLGKHPTHFFSSSPIFYSNNNPFNIKQKFIDFNDQPSRTTIKNDVWIGANVIIMDGLTINTGAVIAAGSVVTKNVGAYEVVGGVPAKVIKKRFDNKTIEKLLESKWWEKTPDKLKGFSVEYLNKKDT”, the “soluble on expression in E. coli” value was “not soluble”. With “MPKASDIKKGSAIEHNGKVFFVKEISKLTPSGRAGATLFRMRMYDVATGAKSDESFKADDMINLADFSRRSATFSYVDGNEYVFMDSEDYTPYNFNKEAIEEELLFITEETQGLQILIVDGAPVAIELPSAVDLEIVETAPSIKGASASARTKPATMTTGLTVQVPEYIANGEKVKINTTEHKFMSRALEHHHHHH” the “soluble on expression in E. coli” value was “not soluble”. With “MGSDKIHHHHHHMSRRTQIADMRLSSGVPGFDELIEGGLLPNRLYVVSGPPGSGKTTFCSQFITQGVKEGETCLYVTMHETKTELMQDMAGYDFGFDRAMQSDAIQFLNLVTESGKRTITQFGNEGGLTNRLVAYIRQNDIQRVVIDSTMLLQHFMADVEDEITGFLSALKQTDATTLLISEMTDPSSYSDEHYLAHGVVFFHNFLENGSMTRGVQVIKMRGTAIDCDIREISFSDAGLQVHTDRKVET” the “soluble on expression in E. coli” value was “not soluble”. With “MGSDKIHHHHHHMIKFLYFTDTHIRGTAPKNRLDPFVETLKHKLHEVMEIAETEKVDMLLHGGDVFDRPDLSPNVVGQFAQIFRKTSRPIYAIAGNHDTFGHNPETISRTMLGLLHSFGIIHIIDPQTPVLVEKDGVKVQISGQPYHYDIDQRDPKLDYYPVNVHEADVMVHLVHSMLVEKALPEGIPHTLIDHIWGTSADVLLTGHFHGGFGIKQKDGRYICNPGAIARINNHWTELVRTPTVILGTITKDGIDLKERPLQSAKNGEEVLDRSFLEKSINQEEKLHAFIQQVKEHAEFQSLNMNDVINEIAAMSNVEEPVKQEALRRITVIEEAWKGGEHEYD” the “soluble on expression in E. coli” value was “not soluble”.

— the DeepSol protein solubility set
